Measured values reported in article PMC5692578 (Proceedings of the National Academy of Sciences of the …, 2017).

T1: Mcm4 (S. cerevisiae, UniProt P30665 1-933)
T1 sequence: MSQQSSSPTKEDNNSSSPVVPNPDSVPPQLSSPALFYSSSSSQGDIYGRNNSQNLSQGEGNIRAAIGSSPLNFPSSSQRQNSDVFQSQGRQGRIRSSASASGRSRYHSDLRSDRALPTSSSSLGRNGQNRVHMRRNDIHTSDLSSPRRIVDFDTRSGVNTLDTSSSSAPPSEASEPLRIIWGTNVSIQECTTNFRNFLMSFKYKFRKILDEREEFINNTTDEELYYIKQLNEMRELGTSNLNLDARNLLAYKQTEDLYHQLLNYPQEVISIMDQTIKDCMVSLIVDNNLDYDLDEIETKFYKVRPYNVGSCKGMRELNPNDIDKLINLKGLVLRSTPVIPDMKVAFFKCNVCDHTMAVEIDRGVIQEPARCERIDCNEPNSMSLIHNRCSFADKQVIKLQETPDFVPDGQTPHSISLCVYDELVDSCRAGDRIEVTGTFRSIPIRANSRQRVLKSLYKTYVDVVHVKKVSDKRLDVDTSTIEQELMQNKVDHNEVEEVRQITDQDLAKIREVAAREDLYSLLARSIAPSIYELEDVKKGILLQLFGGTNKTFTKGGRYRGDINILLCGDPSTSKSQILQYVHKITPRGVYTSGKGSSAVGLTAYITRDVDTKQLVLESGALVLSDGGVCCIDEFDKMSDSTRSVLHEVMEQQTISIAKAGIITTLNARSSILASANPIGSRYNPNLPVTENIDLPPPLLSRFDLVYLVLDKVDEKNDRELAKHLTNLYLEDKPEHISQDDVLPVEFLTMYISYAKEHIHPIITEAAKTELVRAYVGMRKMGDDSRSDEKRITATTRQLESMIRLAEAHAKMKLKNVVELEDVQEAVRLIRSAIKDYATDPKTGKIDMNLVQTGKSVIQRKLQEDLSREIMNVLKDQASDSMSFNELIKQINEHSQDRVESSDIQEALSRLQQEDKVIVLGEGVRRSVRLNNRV

B1: Mcm5 (natural protein)
chain: MSFDRPEIYSAPVLQGESPNDDDNTEIIKSFKNFILEFRLDSQFIYRDQLRNNILVKNYSLTVNMEHLIGYNEDIYKKLSDEPSDIIPLFETAITQVAKRISILSRAQSANNNDKDPENTSMDTDSLLLNSLPTFQLILNSNANQIPLRDLDSEHVSKIVRLSGIIISTSVLSSRATYLSIMCRNCRHTTSITINNFNSITGNTVSLPRSCLSTIESESSMANESNIGDESTKKNCGPDPYIIIHESSKFIDQQFLKLQEIPELVPVGEMPRNLTMTCDRYLTNKVIPGTRVTIVGIYSIYNSKNGAGSGRSGGGNGGSGVAIRTPYIKILGIQSDVETSSIWNSVTMFTEEEEEEFLQLSRNPKLYEILTNSIAPSIFGNEDIKKAIVCLLMGGSKKILPDGMRLRGDINVLLLGDPGTAKSQLLKFVEKVSPIAVYTSGKGSSAAGLTASVQRDPMTREFYLEGGAMVLADGGVVCIDEFDKMRDEDRVAIHEAMEQQTISIAKAGITTVLNSRTSVLAAANPIYGRYDDLKSPGDNIDFQTTILSRFDMIFIVKDDHNEERDISIANHVINIHTGNANAMQNQQEENGSEISIEKMKRYITYCRLKCAPRLSPQAAEKLSSNFVTIRKQLLINELESTERSSIPITIRQLEAIIRITESLAKLELSPIAQERHVDEAIRLFQASTMDAASQDPIGGLNQASGTSLSEIRRFEQELKRRLPIGWSTSYQTLRREFVDTHRFSQLALDKALYALEKHETIQLRHQGQNIYRSGV
B2: Mcm7 (natural protein)
chain: MSAALPSIQLPVDYNNLFNEITDFLVTFKQDTLSSDATRNENEDENLDAENIEQHLLEKGPKYMAMLQKVANRELNSVIIDLDDILQYQNEKFLQGTQADDLVSAIQQNANHFTELFCRAIDNNMPLPTKEIDYKDDVLDVILNQRRLRNERMLSDRTNEIRSENLMDTTMDPPSSMNDALREVVEDETELFPPNLTRRYFLYFKPLSQNCARRYRKKAISSKPLSVRQIKGDFLGQLITVRGIITRVSDVKPAVEVIAYTCDQCGYEVFQEVNSRTFTPLSECTSEECSQNQTKGQLFMSTRASKFSAFQECKIQELSQQVPVGHIPRSLNIHVNGTLVRSLSPGDIVDVTGIFLPAPYTGFKALKAGLLTETYLEAQFVRQHKKKFASFSLTSDVEERVMELITSGDVYNRLAKSIAPEIYGNLDVKKALLLLLVGGVDKRVGDGMKIRGDINVCLMGDPGVAKSQLLKAICKISPRGVYTTGKGSSGVGLTAAVMKDPVTDEMILEGGALVLADNGICCIDEFDKMDESDRTAIHEVMEQQTISISKAGINTTLNARTSILAAANPLYGRYNPRLSPLDNINLPAALLSRFDILFLMLDIPSRDDDEKLAEHVTYVHMHNKQPDLDFTPVEPSKMREYIAYAKTKRPVMSEAVNDYVVQAYIRLRQDSKREMDSKFSFGQATPRTLLGIIRLSQALAKLRLADMVDIDDVEEALRLVRVSKESLYQETNKSKEDESPTTKIFTIIKKMLQETGKNTLSYENIVKTVRLRGFTMLQLSNCIQEYSYLNVWHLINEGNTLKFVDDGTMDTDQEDSLVSTPKLAPQTTASANVSAQDSDIDLQDA

Experiments:
Assay in all cases: cryo-EM structure
Mcm7 = target: B2
Mcm3 = Mcm3 (S. cerevisiae, UniProt P24279 1-971)
Mcm4 = target: T1, Mcm4

Mcm3, sequence (P24279 whole entry): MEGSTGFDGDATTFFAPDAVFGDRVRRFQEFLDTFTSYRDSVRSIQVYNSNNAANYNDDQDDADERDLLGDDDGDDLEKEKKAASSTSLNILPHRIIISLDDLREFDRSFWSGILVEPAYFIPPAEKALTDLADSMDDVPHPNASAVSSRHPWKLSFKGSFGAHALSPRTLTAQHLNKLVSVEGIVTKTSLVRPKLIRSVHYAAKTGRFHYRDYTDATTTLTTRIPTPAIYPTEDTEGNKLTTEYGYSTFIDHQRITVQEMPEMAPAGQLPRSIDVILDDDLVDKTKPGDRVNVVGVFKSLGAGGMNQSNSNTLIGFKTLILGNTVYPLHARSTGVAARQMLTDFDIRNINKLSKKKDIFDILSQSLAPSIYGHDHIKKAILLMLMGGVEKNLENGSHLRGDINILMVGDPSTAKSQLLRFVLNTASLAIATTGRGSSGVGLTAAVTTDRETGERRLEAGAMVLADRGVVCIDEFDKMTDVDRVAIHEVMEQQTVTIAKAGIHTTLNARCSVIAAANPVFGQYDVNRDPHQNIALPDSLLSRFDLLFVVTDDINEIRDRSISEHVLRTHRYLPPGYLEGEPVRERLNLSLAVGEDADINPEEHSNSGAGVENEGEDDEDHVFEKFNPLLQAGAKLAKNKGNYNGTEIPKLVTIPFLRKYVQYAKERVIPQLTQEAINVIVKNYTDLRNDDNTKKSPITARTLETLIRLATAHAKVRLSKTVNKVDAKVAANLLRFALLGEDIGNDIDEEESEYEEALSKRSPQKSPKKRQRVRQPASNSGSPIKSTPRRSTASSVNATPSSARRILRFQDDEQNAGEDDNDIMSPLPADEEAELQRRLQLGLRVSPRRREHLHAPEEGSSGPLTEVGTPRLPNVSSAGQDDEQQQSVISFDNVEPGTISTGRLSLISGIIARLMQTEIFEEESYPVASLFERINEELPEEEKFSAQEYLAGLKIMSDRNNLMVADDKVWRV

binding result (Mcm7) | binding result (Mcm3) | binding result (Mcm4) | Binder
binds |  |  | B1
 | binds | binds | B2
